For test [1], the target named is T1, Cyno B7H6-His (cynomolgus monkey).
T1 construct: also called CyB7H6; cyB7-H6
T1 chain: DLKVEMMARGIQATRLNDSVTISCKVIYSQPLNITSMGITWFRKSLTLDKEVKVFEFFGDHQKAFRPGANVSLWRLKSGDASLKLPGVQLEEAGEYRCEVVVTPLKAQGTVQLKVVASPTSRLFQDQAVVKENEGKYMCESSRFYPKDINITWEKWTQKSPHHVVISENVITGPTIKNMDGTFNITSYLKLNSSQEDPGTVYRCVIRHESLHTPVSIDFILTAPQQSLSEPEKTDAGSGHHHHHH
Put plainly: ratio of SPR KDs cyno/human.

Test [2] concerns the target T2, Cyno CD3 E+G HuFc-6xHis (cynomolgus monkey).
T2 construct: also called CyCD3E+G-hFc; cyCD3
Briefly: ratio of SPR KDs cyno/human.

In test [3] the target is T3, chicken egg white lysozyme (chicken, UniProt P00698 19-147).
T3 construct: unrelated positively charged protein, amine-coupled to the chip; also called Lysozyme (positive)
Put plainly: SPR, 1 µM binder over immobilized lysozyme. The procedure, abridged: (§1)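 Non-specific binding tested with samples at 1 μM in HBS-EP at 25 °C, 5 μL/min, over lysozyme or trypsin inhibitor amine-coupled to CM5 chip (3000–5000 RU). Association 10 min, dissociation 15 min.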
For orientation: In SPR one partner is held on a chip, and binding of the other changes the refractive index at the surface.

Another test has as its target T4, Human CD3 E+G HuFc-6xHis (human).
T4 construct: also called HuCD3E+G-hFc; huCD3
Briefly: SPR, CD3E+G-hFc immobilized, binder analyte. The procedure, abridged:
(§2)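 On a ProteOn XPR36, human and cyno CD3E+G-hFc were amine-coupled to a GLM chip at 0.4, 0.2 and 0.1 μg/mL in 10 mM acetate pH 4.5. B7H6/CD3 binding protein (0–100 nM) flowed in HBS-EP+ at 30 μL/min, with 300 s association and 600 s dissociation. Interspot and blank responses were subtracted.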

Test [4] addresses T2, Cyno CD3 E+G HuFc-6xHis. Put plainly: SPR, CD3E+G-hFc immobilized, binder analyte. The procedure, abridged: as §2
In test [5] the target is T1, Cyno B7H6-His. Put plainly: SPR, binder captured on Protein A/G, B7H6 analyte. The procedure, abridged:
(§3)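 B7H6/CD3 binder captured (~700 RU) on a Protein A/G CM5 surface in HBS-EP+. Human or cyno B7H6 injected at 0–100 nM and human B7H1 at 0 nM and 1 μM, 300 s association and 1200 s dissociation. Data double-referenced against the reference flow cell and blank.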

A further test deals with T5, Human B7H1 (human, UniProt Q9NZQ7 20-239).
T5 construct: also called HuB7H1; huB7-H1
Put plainly: SPR, binder captured on Protein A/G, HuB7H1 analyte. The procedure, abridged:
as §3

Test [6] deals with T6, trypsin inhibitor from Glycine max soybean (Glycine max (soybean)).
T6 construct: unrelated negatively charged protein, amine-coupled to the chip
Briefly: SPR, 1 µM binder over immobilized trypsin inhibitor. The procedure, abridged:
as §1

A further test addresses T7, CD3 on human T-cells (human, UniProt P07766;P09693).
T7 construct: endogenous, on the surface of purified T-cells; also called human T-cells expressing CD3
Put plainly: flow cytometry on purified human T-cells, PE anti-human secondary antibody. As for the experimental part: T-cells were isolated by negative selection using the Pan T Cell Isolation Kit II (Miltenyi Biotec #130-091-156). In brief, cells were resuspended in 40 μl buffer PBS/0.5% BSA (Gibco ref #041-94553 M)/2 mM EDTA (Invitrogen ref #15575-038) per 10 Mio cells and incubated with 10 μl of Biotin-Antibody cocktail per 10 Mio cells for 5 min at 4° C. Subsequently, 30 μl buffer and 20 μl anti-biotin MACS® MicroBeds/10 million cells were added and incubated for 10 min at 4° C. Subsequently the mixture was placed in a pre-rinsed 25LS column (Miltenyi Biotec #130-042-401) in the magnetic field of suitable MACS® microbeads separator (Miltenyi Biotec). Flow-through was collected and washed in assay medium.
T-cells were stained with increasing concentrations of two-step purified B7H6/CD3 binding proteins in FACS buffer (PBS/0.5% BSA/0.05% sodium azide). Bound molecules were detected with PE-conjugated anti-human secondary antibody (Sigma-Aldrich, #P8047).
For orientation: Flow cytometry measures light scatter and fluorescence of single cells or particles in a stream.

T2 sequence (chain, as listed by the source limits assumed): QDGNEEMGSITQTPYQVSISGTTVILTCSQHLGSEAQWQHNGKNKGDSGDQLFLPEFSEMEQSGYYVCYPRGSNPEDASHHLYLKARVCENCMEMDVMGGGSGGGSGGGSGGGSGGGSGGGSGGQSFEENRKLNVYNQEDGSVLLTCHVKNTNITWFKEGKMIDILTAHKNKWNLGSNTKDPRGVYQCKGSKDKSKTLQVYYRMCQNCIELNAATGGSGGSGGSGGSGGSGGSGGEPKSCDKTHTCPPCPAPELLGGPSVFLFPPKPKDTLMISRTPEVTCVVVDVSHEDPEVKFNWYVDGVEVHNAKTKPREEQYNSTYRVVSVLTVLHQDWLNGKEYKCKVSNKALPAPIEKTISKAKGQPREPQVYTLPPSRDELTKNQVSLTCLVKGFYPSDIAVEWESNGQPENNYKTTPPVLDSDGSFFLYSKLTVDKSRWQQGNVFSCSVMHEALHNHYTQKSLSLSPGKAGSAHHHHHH
T6 sequence (P01070 25-205): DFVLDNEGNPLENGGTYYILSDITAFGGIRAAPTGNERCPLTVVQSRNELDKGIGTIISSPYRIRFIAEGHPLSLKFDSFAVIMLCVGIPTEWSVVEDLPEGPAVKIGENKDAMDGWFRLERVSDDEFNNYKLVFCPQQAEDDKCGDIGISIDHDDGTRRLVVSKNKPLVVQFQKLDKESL
T7 sequence (P07766 23-207, chain 1 of 2): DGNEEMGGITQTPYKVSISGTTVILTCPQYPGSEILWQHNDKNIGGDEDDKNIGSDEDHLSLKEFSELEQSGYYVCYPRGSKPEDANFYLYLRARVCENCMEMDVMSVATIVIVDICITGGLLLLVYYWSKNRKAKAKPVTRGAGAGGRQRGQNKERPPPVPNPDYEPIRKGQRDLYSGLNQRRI
T7 sequence (P09693 23-182, chain 2 of 2): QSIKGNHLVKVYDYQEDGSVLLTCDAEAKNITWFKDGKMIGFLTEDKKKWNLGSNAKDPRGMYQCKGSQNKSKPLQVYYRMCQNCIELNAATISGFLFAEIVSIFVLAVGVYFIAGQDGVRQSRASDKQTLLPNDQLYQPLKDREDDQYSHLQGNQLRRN
T3 sequence (P00698 19-147): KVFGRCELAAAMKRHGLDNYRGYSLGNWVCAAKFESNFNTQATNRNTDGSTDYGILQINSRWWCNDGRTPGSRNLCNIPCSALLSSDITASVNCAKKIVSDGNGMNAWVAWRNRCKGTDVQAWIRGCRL
T4 sequence (chain, as listed by the source limits assumed): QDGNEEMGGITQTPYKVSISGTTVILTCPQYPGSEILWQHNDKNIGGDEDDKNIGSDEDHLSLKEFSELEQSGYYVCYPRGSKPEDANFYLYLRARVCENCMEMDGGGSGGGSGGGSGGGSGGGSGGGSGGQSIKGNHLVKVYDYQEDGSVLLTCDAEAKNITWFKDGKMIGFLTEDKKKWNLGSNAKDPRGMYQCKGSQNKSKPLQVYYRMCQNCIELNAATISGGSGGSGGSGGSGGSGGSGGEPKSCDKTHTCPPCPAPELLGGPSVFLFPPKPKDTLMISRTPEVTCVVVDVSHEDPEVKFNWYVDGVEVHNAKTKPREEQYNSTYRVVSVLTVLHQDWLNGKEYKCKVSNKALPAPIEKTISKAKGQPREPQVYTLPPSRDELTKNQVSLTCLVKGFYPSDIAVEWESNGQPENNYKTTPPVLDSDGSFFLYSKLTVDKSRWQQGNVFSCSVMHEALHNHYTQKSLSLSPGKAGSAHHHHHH
T5 sequence (Q9NZQ7 other isoform, or with tags, fused parts or gaps limits assumed): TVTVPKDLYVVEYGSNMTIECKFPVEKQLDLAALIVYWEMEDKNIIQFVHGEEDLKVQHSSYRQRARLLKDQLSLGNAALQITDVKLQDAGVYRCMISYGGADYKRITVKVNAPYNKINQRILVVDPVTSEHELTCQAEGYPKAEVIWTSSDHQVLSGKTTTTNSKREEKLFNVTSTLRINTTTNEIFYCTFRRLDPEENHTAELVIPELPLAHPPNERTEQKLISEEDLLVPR

B1: B7H6#23/CD3#5 (bispecific antibody, human IgG1, kappa, L234A L235A)
chain 1: DIQMTQSPSSLSASVGDRVTITCKASQNVGKYVAWYQQKPGKAPKSLIYSASNRYDAVPSRFSGSGSGTDFTLTISSLQPEDFATYFCQQYISYPLTFGAGTKLEIKRTVAAPSVFIFPPSDEQLKSGTASVVCLLNNFYPREAKVQWKVDNALQSGNSQESVTEQDSKDSTYSLSSTLTLSKADYEKHKVYACEVTHQGLSSPVTKSFNRGECGGGGSEGKSSGSGSESKSTEGKSSGSGSESKSTGGGGSQVQLVQSGAEVKKPGASVKVSCKASGYTFTSYWMNWMKQAPGQGLEWIGGIYLSGESTDYNEKFKGKVTMTVDTSTSTVYMELSSLRSEDTAVYYCTRRGDYFGDFWGQGTLVTVSSASTKGPSVFPLAPSSKSTSGGTAALGCLVKDYFPEPVTVSWNSGALTSGVHTFPAVLQSSGLYSLSSVVTVPSSSLGTQTYICNVNHKPSNTKVDKRVEPKSCDKTHTCPPCPAPEAAGGPSVFLFPPKPKDTLMISRTPEVTCVVVDVSHEDPEVKFNWYVDGVEVHNAKTKPREEQYNSTYRVVSVLTVLHQDWLNGKEYKCKVSNKALPAPIEKTISKAKGQPREPQVYTLPPSREEMTKNQVSLWCLVKGFYPSDIAVEWESNGQPENNYKTTPPVLDSDGSFFLYSKLTVDKSRWQQGNVFSCSVMHEALHNHYTQKSLSLSPG
chain 2: not shown
notes: scFab-Fc heterodimer
One may read the Kd as the equilibrium constant for the complex coming apart. Higher therefore signals lower affinity. As to B1, the “cy/hu B7-H6” value with Cyno B7H6-His [1] worked out at 0.9. The “cy/hu CD3” value in the test with Cyno CD3 E+G HuFc-6xHis [2] was 1.3. Further, the “Non-specific binding (RU)” value in test [3] was determined as 15 RU; in test [6] it was 115 RU. Further, the values for the Kd with Human CD3 E+G HuFc-6xHis, in the test with Cyno CD3 E+G HuFc-6xHis [4] and in the test with Cyno B7H6-His [5] were 2.8 nM, 3.7 nM and 1.9 nM, respectively. Besides, the binding result with Human B7H1 is given as “no binding (tested: 1 µM)”; in the test with CD3 on human T-cells, “binds”.

B2: B7H6#23/CD3#6 (bispecific antibody, human IgG1, kappa, L234A L235A)
chain 1: DIQMTQSPSSLSASVGDRVTITCKASQNVGKYVAWYQQKPGKAPKSLIYSASNRYDAVPSRFSGSGSGTDFTLTISSLQPEDFATYFCQQYISYPLTFGAGTKLEIKRTVAAPSVFIFPPSDEQLKSGTASVVCLLNNFYPREAKVQWKVDNALQSGNSQESVTEQDSKDSTYSLSSTLTLSKADYEKHKVYACEVTHQGLSSPVTKSFNRGECGGGGSEGKSSGSGSESKSTEGKSSGSGSESKSTGGGGSQVQLVQSGAEVKKPGASVKVSCKASGYTFTSYWMNWMKQAPGQGLEWIGGIYLSGESTDYNEKFKGKVTMTVDTSTSTVYMELSSLRSEDTAVYYCTRRGDYFGDFWGQGTLVTVSSASTKGPSVFPLAPSSKSTSGGTAALGCLVKDYFPEPVTVSWNSGALTSGVHTFPAVLQSSGLYSLSSVVTVPSSSLGTQTYICNVNHKPSNTKVDKRVEPKSCDKTHTCPPCPAPEAAGGPSVFLFPPKPKDTLMISRTPEVTCVVVDVSHEDPEVKFNWYVDGVEVHNAKTKPREEQYNSTYRVVSVLTVLHQDWLNGKEYKCKVSNKALPAPIEKTISKAKGQPREPQVYTLPPSREEMTKNQVSLWCLVKGFYPSDIAVEWESNGQPENNYKTTPPVLDSDGSFFLYSKLTVDKSRWQQGNVFSCSVMHEALHNHYTQKSLSLSPG
chain 2: not shown
notes: scFab-Fc heterodimer
As to B2, in the test with Cyno B7H6-His [1], the “cy/hu B7-H6” value stood at 1.1. Also, the “cy/hu CD3” value in the test with Cyno CD3 E+G HuFc-6xHis [2] is 1.2. Moreover, the “Non-specific binding (RU)” value worked out at 57.2 RU in test [3] and 96.5 RU in test [6]. The values for the dissociation constant (Kd) with Human CD3 E+G HuFc-6xHis, with Cyno CD3 E+G HuFc-6xHis [4] and in the test with Cyno B7H6-His [5] were 3.4 nM, 3.9 nM and 2 nM, respectively. Further, the binding result with Human B7H1 is given as “no binding (tested: 1 µM)”; in the test with CD3 on human T-cells, “binds”.
